For 4 substances, EC50, CRE-Luc reporter in HEK 293 cells overexpressing MC1R, EC50 and B16-SIY cells cAMP-Glo Assay, EC50 results are on record in patent US20220354960A1, “IMMUNE CHECKPOINT BLOCKING BISPECIFIC MOLECULES” (THE SCRIPPS RESEARCH INSTITUTE, priority 2019, published 2022).

Assay [1] has as its target human MC1R on HEK293 cells that overexpress it (human) (UniProt Q01726). Briefly: cell surface ELISA on fixed HEK293-MC1R cells.
Assay [2] shares this target. Description: cell-based or functional assay.
Assay [3] deals with human PD-L1 (extracellular domain)-Fc fusion protein (human) (UniProt Q9NZQ7). Description: ELISA, PD-L1-Fc coated, detection with HRP anti-human kappa light chain antibody.
Assay [4] concerns the target MC1R on B16-SIY cells (mouse) (UniProt Q01727). Briefly: cell-based or functional assay.
Assay [5] deals with human PD-L1 (extracellular domain)-Fc fusion protein (human) (UniProt Q9NZQ7). Description: ELISA on human PD-L1 (extracellular domain)-Fc fusion protein.

Chain of MC1R on B16-SIY cells (mouse) (Q01727 whole entry, the tested form may be a part): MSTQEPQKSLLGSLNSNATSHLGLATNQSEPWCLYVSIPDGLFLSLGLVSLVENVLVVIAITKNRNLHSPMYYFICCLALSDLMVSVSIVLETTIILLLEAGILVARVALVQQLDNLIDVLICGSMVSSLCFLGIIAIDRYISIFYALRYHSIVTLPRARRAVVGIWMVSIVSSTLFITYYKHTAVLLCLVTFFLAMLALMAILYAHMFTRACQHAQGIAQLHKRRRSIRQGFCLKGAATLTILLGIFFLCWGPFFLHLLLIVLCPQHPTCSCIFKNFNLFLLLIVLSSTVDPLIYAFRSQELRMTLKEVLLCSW
Chain of human MC1R on HEK293 cells that overexpress it (human) (Q01726 whole entry): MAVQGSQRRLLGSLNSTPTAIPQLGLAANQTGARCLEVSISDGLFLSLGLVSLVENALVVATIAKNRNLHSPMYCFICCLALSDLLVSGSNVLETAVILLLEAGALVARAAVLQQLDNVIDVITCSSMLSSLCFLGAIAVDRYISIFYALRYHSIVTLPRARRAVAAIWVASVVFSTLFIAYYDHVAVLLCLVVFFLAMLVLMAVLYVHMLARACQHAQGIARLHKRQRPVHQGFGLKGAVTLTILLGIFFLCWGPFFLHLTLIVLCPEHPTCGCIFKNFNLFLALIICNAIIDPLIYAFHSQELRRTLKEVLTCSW
Chain of human PD-L1 (extracellular domain)-Fc fusion protein (human) (Q9NZQ7 19-238): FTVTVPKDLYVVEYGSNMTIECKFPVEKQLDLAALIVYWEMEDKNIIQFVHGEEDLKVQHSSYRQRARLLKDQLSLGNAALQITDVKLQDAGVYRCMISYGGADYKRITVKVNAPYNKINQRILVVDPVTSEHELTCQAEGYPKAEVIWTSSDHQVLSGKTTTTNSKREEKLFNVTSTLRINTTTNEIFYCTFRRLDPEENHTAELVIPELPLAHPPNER

Take “NDP-MSH-αPD-L1 conjugate (Avelumab with NDP-MSH conjugated to lysines through BCN/PEG24, LAR about 3.5) (bispecific antibody)”: the EC50 in assay [1] came out at 1720 pM; in assay [3], 170 pM. In assay [2], this substance yielded a CRE-Luc reporter in HEK 293 cells overexpressing MC1R, EC50 of 2700 pM.
Regarding NDP-MSH peptide ([Nle4, D-Phe7]-MSH), the B16-SIY cells cAMP-Glo Assay, EC50 in assay [4] is 60 pM. For the same substance, the CRE-Luc reporter in HEK 293 cells overexpressing MC1R, EC50 in assay [2] is 90 pM.
Take “NDP-MSH-Synagis (control antibody Synagis conjugated at the heavy chain N-terminal serine to H2NO-NDP-MSH)”: the B16-SIY cells cAMP-Glo Assay, EC50 in assay [4] came out at 60 pM.
As for “NDP-MSH-αPD-L1 N-terminal conjugate (Atezolizumab with engineered heavy chain N-terminal serine and 8x(G4S) linker, oxime-ligated to H2NO-NDP-MSH, LAR 2) (bispecific antibody)”, in assay [4], the B16-SIY cells cAMP-Glo Assay, EC50 is 20 pM. The same substance yielded an EC50 in assay [5] of 87 pM.
